Reference: paper PMC10058639

Experiments:
[1] = molecular target: recombinant truncated oyster intraflagellar transport protein 74-like protein (roIFT) (Crassostrea gigas (Pacific oyster)); assay: ELISA
[2] = molecular target: recombinant truncated oyster tumor necrosis factor (roTNF) (Crassostrea gigas (Pacific oyster)); assay: ELISA

## P protein of HuNoV GII.4, recombinant, purified (domain or fragment)
[1]
  P/N (OD450 of sample over negative control): 3.95
[2]
  P/N (OD450 of sample over negative control): 5.33

## P protein of HuNoV GI.1, recombinant, purified (domain or fragment)
[1]
  P/N (OD450 of sample over negative control): 6.97
[2]
  P/N (OD450 of sample over negative control): 5.88
